# From the NTF2 design screens of Basanta et al. (2020)
# Experiment: protease stability score; higher = more stable; yeast display proteolysis, trypsin and chymotrypsin;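 also: relative to predicted unfolded state with 0 unfolded-like and 1 meaning tenfold more protease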
row,Sequence,protease stability score
1,DEDEKEYTEMVLILSRMIETGDEDSLRRLMDPHAKIHINGKEIHGRELWVHILHEHKRKLGYDNIRVNVHRIWVHGDKIRVHGHLHIDGKEHEVHVHIEKINGRWVLRHDEIR,1.68
2,DEEKEEIRQFEETFVEAMKTGDEDVIRHLLDPHVRVDINGQTFHGREIVIEMVSRFPNVQVHIDDLDVQGNWAHSDVQLHQGDKYIRLHIDVTKIDGKWRITFLKFK,1.45
3,SEDEHDSELALRIFIQEVYTGDWKRLADNMDPNVRLEINGVENHGRELAIKNLRRRLEELGVKVSDLKIDDIKVQGDKVNLDGQLNLHVNGRTIIINTEVIFRKVDGRWIIESIRYE,1.7
4,DHIEEDIEEAERIMKEVNHTGDWETLERNFDPNVRLDIDGRTFHGMETYTKWFREIRIEDSRVKSIELQGDKIRYDTILHGIINGKRDTVKTHLIAVKVNGRWFIKVYSLH,1.05
5,DEERDHLLEISQRIIHSWVTGDWKLFARLIDPHARLIFHFENVDLHYHGREQVVTFIIEMRIQHIDIRRYTVQGNKVHIDGHQKIEIGDKSIRTDSEMNSIIVNGKLHETFLIFK,1.45
6,DEERHDAEEASREIMRSYETGDETEYLNLLDPHARMTVGDKEFHGREDILRWWHELNEKLGVDRIHLHLEHIRVINGVVESHVRLNVNGREHRVELLVYKVNGRWLIREMHFR,1.68
7,SEMEEEVRRAMKSFIKDLETGNEKSNHENVDPHARLLINGQEFHGMEHVSRWINKAGIDHFEIDEFRIIGNKIRIDGTITFNGQQHKVRIDVVKVDGRWLVKSLEII,1.29
8,SETEESLRRYIEDWLTALSTGNEDTLKRLMDPSTRVTVDGVEYHGRSALEEFIKRVDVIHRSDRHDFKIQGEKVHVDVRMDVHIDGQKHTLHSHWLILKINGRWVIHELIFE,1.99
9,DELNELNKEAFETYHQISETGNETMHSRNADPHVRIDINGVEYHGWEHAERLWKNLGVKHIQFHDIEIQGNKLIITVIVEVNGQETRSEVILLKINGRWLIHSLSFR,1.06
10,SEEEEYLRRVAELILRLLITGDEDEHHNLADPNTLVLIDINGVHIRDHGWWALRRWWEELERRVPGMRVRPRNMTVQGEKVILHMETVIGDKRLRLDFYHLVIDGKITSVEIKVDES,2.4
11,DEDKEILKRAFEIYIQTVLTGDEDLFHEMADPHTRLETENETFIGREEVRRWMSEWRVDHIILKDFTAVNGRLVLRGEMDGTINGKRTHVTVTIIIHKVDGRWLLKSMSVE,1.36
12,TEHDEDLDRWYDVLKHVLHTGDEEAKAKMVDPHVREDVNGQELHGRDDVRRLDRELGVNHFVLRVERLNIQGNKITMRGTLELTVGDKTERRHVIIHMIKIDGKWFTHHEQIR,1.04
13,DEEEERMDRAYDHWRENILTGDWKRLRELADPHAKMDINGVDIHGMETFNKILSEELKEIRLKDVHIDDKHVVDGQLHVHGKRETLFNGKNTWIKTHIHLVIIDGRFHSYTVHIE,0.281
14,DEEEDLQRHVADEFLHNLLTGNEHDIERLMDPNVKLIMDVNGVKLHFHGREQVLKLLREWRLDHWEVKRRHLVGDYAVLDGHQQGVIDGREVRTDSEIELRLYNGRMKEVTIRVR,1.47
15,DEEDRELEEMLELIIHAFKTGDEEIMKRLFDPNTRIRINGREEIGWEHAVKILREWRFRHVILRRKHKQGDKLHYEFEVHGHFDGQQDSVHVRILILKVNGRWIITEYIFV,2.51
16,SEEDEEIHRNLRILVEAIHTGDETTMSKLIDPHARLKVGDKDHHGREKMTEFLIELGIDHIVFRRTRIINGRAEHHGHIKVGDKKMETRIISDKIDGKWIITEVIIH,1.51
17,SEIEEDSRKASRDLMNSIRTGNEEVLKEMADPHVRTDINGREIHGMEKWLNELSEFLEKFKGAKIDLSLKDIRIQGEYIHIHMHVHLRFNGKSDNKDIEIIALKVDGRWLIQEWRIR,0.834
18,SEEQTRLEEETRLLIELLTTGNEEEWARMFDPHARVDLHIGDKTIHSIGRENISELVRLLRHWLGVNHNHSTQLRVIDGVSVLHTESKVGDKHSKVTWIFVIVDGRLKTMEIRVRID,1.33
19,DEEERDISRWLDHLIESLETGDEDSLQHLLDPHVRVVVNGKDHHGWKALTKMLRQLRVNRIRIRDFEIIGDKIEVDIRMHVRVGDKHYVFNVDLVARKIDGRWIMHNITIH,2.19
20,TEEKEEIDHAFELIWKAIDTGDEKFMTEQADPHTLTILVVDGQEIRLHGMEEFVRTFRELGIKHVRLEDIRIQGNKVEIHIRTNFNGRESEMRVHMEKVDGRWVLRSHRVIFK,1.36
21,DDSEEDALRILELLSDSMETGNWRLVSELLDPHVRLEVGDKTWVGMEEMKRLANQIRIHVHRVKFHHIDNFNGRVRVDGHIHGEIIVGDKIYRFRTRIEIDAVKINGQWVIEEMRIG,1.61
22,DEEEQLFHEAHDKFIKIMETGDWKDFHRNFDPDAKIEVGDKDKHGREEATEMLKFILDLLGVDHVLVKRLRIYGNKIESDVVFNVNGVEQRFHLISVKINGKWRTHKIVLR,1.23
23,DDEKEILRIAIEWSELVSNTGDEKTVEHLADPHVRIHYGDKDYVGRERMVEFVHRFKNLKLEIKDTDVQGEYIHVNGKMKFNGRTFDVEIVVFKIDGVWFEKSVEFK,1.38
24,DEEEEKDRILVEIWKRLVLTGDEEELLNLADPEARQTVHFNGKEVRNVGMERVIEHNREYLRLMGVDHITVDRSRVVNGRVENHHRVFVGEKEIRFEIEVTIINGRLRSVTIRVR,0.379
25,SEEEESERKVLHKFTEAIRTGDEHTLENLIDPNVKIDAENRSHHGMEDWLKWLMELRRRADHIDFRIHSIHTQGDKLHVHSEIIVVQGDKHIHIEISMIINKVNGRWHIHHIELR,1.29
26,DERDEAEKVLMKILLDNHHTGDEESLERLIDPNAKIIYGDKDYVGWELMIEWVRHARVHRVEIKDSRVQGDKVNLDGHEDGNINGKRRRTNVIVYLLKINGRWFFHSIQID,2.17

row,Sequence,protease stability score
1,DEEHEHQHEFAQIIMEMWKTGDWKTMFKLADPNARTIFEGRRLHGRELIWEFLFRLLKKLGVDHEKDRHSHNIGDKIHIHGEEEIGDKKVEVHIHIVIFNGRVKELEIRRREL,0.511
2,DEIERRAREFFELWMQTVRTGDEHASSELLDPHVRIEQGDKSFHGRETYNEILHHLHRHMWFEIYLDSIEIQGDKIHARVNFVYIIGDKESWIDVHIHIDVINGRMKRLEIRDH,0.511
3,SEEEKIFEMAIKLMRHTLQTGDESTLHRLLDPHVRVVIGDKTYVGREATEFLLTRIDHIHDVEIHEVELINGRVNMHGIVDGTIGDKRVHVESNWVASKYDGRWHLKSISFH,1.29
4,DEDEQHSELLFRLLYHARKTGDWRKLQELADPHTRFQIGEWDLIGWKMYLEYVRNFRNVHLEFHIKDFRLYGEKTHSNVETIIRIGDKTLNIETELRVDVVNGRIKFIEVHER,0.994
5,SEEEELNQKLLEEIIQILITGDWRALLELADPNVRSEVNGVELHGMETHARHLLEMLEKYPNIQVRIHHLEVQGEKIIIHGTIHFNGRDLRLTLVWHVVNGRWKEVRSELR,1.35
6,DEHEENVRKDIKEHEETEKTGDEKAYLEMADPHVKVDIDGVDLHGMERVTNFYRELLHKFPNIRIHTRHVDVQGEKVHVETELEWNGVKLETELVWVKINGRWLTHEIHIR,1.2
7,DDSERILRWFWNVLAESIETGDEEVMKELFDPNTRIHVNGQDHIGMEHRTRLASEMRITLYRVDLKRIHEVDGRIVLHIEVETHGTINGRLEHSKVRVQIIVSKIDGKWRMHQVEVK,1.38
8,DEDRKNEEIAEKIQLRVLKTGDEDELHHLVDPNVKLHIDGREFHGMELSTHLLSRWHEKYKGLKWRLRDSQSQGDFVIIHFHVHVNGKRLRFVVIARKVDGRWVVEEIELE,1.4
9,DKEEEEVREALRILLEEWHTGDFDRILDLFDPNDRMHIGDKDLHGRHIMEHFYDHMIKRVKNMRIELTDVRFQGDKVWFHVKEHFDGRTISSEIVLVKINGKWRIETIFII,1.46
10,DEHQKEIKEVVEMMRHAILTGDEETLERQMDPHAKIRINGVDYVGRRYLEILIRRVDHRRIHTRIRHVEIVDGRVITHLEERTVLHVGDKDIHVSHELEFVLLKIDGRWLVTEMIIQ,1.23
11,HENEENETEAIRLFLRVMLTGDEHDLKRMFDPDMKVEIGDKRIVGRERVLEHWLHTAERFGLTNIYLQLDHVRVINGRVDIDFHVRFNGRTERVHLHILKINGKWIVEHLEVR,1.36
12,DEHEERLEHWAEVIIRSWITGDESLFRHLFDPHVRTEVNGVERHGRDEAVKMERLIREHLGVKHEEIKDYHVQGDKIHVDSRVDVNGVKINTRIHVLVVNGRIKEVRFEFD,0.841
13,DEEEEHLHSVAKRFLHSVETGDWKDLYELLDPHARFESVFNGRKVEHHGREEARKWFQEWVERFKNMRLHIEEVRTQGDKTHVDSRVHYGDKTINTIIHIVIVNGKVHHVEIRVK,2.2
14,TEEEDRLREIAELIHKFLTTGDWEKIFRMLDPHVRVEIHVNGRDIIIHGWKNVHRLLEYELEELRFHQSDVHELRVQGDKAHSITEWDGVIDGRRQNLHVNVHFVTVDGRIRSIKFEFR,1.57
15,SSDKRDAHFAMDLYYEIHLTGDEDRWRHMADPNVRLHVGEKDFHGRELWFKFMHDFGLDKIEIELKDIEVQGEKVHLDGIIRFDGREHKVEVDLRKINGRWIIDEERYK,1.13
16,DEDVELFELIFKVMIELLETGNEELLRHLADPHTRVHINGVDFHGMEDWLKFLRHIRIEDIKIRHVSVVNGVMHAETETLMHVNGRDKRVDTRVTAIKINGRWVLKHVQYK,2.51
17,DEEDRHLEEFIRLWLHFFFTGDWEFHMKNADPNVKLDAENRSVHGRDDASRTLVEIVRRLGIDHVELKDSHVIDGVIELHLELKIGDKRRTMHIHINIFNGRIRSVRIHFS,1.28
18,SEDEEIWRRYAKEWYHNWSTGNFDRFKQLMDPDARFIYGDKELVGREEVLRRIRHLLEHLRFKRSEIKREHVVNGVLHLDVHEDGEQGDKSRRSDVEIILYVINGRLHTVEIRIE,1.61
19,DEDEDLLRRFTELWNHIYLTGDERMLHHLVDPHARLDVNGKEMHGRELLIKWMVKEIRDLGADHYRIDIKHYHFVDGRAHVQSTLEVDIGDKRITFYIRLILLKVNGRWVVHTIYYH,1.55
20,TEDETIAELALEEFIRILETGDEDDVNRLLDPHVRVDIDGKEIHGREHVYHHLRNLGVRIKIEWKRIRVVDGKVDSDGHVIERFNGRDIEVKSQFIMRKIDGRWVVHHFTRR,0.488
21,NEDEEVERKWLEFIRHALHTGDERILHELLDPHAQLIYGDKHIIGREEMTRQFIELGVDHMEDKRVHHQGDKIHQDGTEHVNGKERKVRFVVAKVNGRWIWERMHVI,1.03
22,SEEREDSKKFLELVLTSWITGDWRQINKNFDPHARSHVGDKEIHGMDHVAHRMNEHLERADHIHFYLEDEHIQGNKIHVDGILQLVINGVDIRMRIRLVVLKINGRWQVHSIEIK,1.14
23,SEDEEKVFEHLQRITESFVTGDEDSFRHLLDPNVLFLINGRIFHGWEALHWELRRYDHHEVRVHVHHIDFINGRARSDIRLDLHLNFNGKQIDIHTETRVHAEKINGRWRLKRIDIE,0.811
24,DESTRDVKEMVEWFLRTLHTGDEHLLEHLLDPDVRVLIDGREHHGRETMREIWKEHIDKIKGAVIEIKRIEVRIQGNKAHLHVDTVLHYNGRNLDTHIEIIITKINGQWRVREVEIRVR,2.21
25,DEEERRDREWLHRMLHVHHTGDEEMFKRLADPHTLLRVDGKDVHGREEIAHFIRERGYRVEVHARHIEIINGRIDNETTVIVRINGRTIHEETHLHIRKINGKWILTHWHIE,0.654
